1 substance from US20220031857A1 can be followed below.

For assay [1], the target named is recombinant human TfR1 (transferrin receptor 1) (human) (UniProt P02786). As to the kind of experiment: ELISA on coated human TfR1, purified VNAR-Fc. (ELISA stands for enzyme-linked immunosorbent assay.)
Assay [2] addresses recombinant mouse TfR1 (transferrin receptor 1) (mouse) (UniProt Q62351). As to the kind of experiment: ELISA on coated mouse TfR1, purified VNAR-Fc.
For assay [3] the target is unchanged. Kind of assay: Octet, mouse TfR1 on anti-His biosensors, analyte 10 nM, PBS pH 6.0.
For assay [4] the target is unchanged. As to the kind of experiment: Octet, mouse TfR1 on anti-His biosensors, analyte 10 nM, PBS pH 7.2.
In assay [5] the target is recombinant human TfR1 (transferrin receptor 1) (human) (UniProt P02786). Kind of assay: SPR (Biacore), single-cycle kinetics, His-tagged TfR1 captured, VNAR-Fc injected. For orientation: Surface plasmon resonance follows binding to a sensor surface in real time, without labels.
Assay [6] deals with recombinant mouse TfR1 (transferrin receptor 1) (mouse) (UniProt Q62351). The description is as above.
Sequence of recombinant mouse TfR1 (transferrin receptor 1) (mouse) (Q62351 89-763 limits assumed): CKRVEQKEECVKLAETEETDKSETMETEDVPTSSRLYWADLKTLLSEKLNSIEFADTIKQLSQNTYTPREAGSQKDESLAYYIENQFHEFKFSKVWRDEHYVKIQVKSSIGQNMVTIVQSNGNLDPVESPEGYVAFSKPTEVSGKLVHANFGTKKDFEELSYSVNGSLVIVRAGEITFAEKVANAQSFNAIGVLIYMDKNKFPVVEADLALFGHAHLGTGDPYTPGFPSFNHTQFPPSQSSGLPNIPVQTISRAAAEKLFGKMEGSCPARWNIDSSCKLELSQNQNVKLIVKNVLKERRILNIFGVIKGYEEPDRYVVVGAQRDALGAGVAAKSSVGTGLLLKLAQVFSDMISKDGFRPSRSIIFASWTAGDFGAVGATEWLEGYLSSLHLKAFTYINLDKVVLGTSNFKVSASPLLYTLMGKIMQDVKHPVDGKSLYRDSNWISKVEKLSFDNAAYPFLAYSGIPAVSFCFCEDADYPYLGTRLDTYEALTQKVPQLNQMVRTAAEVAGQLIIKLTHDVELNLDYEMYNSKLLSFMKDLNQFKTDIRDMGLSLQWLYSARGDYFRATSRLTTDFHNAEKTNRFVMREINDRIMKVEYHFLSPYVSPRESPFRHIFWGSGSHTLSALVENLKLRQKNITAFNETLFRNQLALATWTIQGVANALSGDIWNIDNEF
The target in assay [7] is recombinant human TfR1 (transferrin receptor 1) (human) (UniProt P02786). Kind of assay: ELISA, plate coated with 1 µg/ml recombinant human TfR1, purified VNAR-Fc titrated, 4-parameter fit.
Assay [8] addresses recombinant mouse TfR1 (transferrin receptor 1) (mouse) (UniProt Q62351). As to the kind of experiment: ELISA, plate coated with 1 µg/ml recombinant mouse TfR1, purified VNAR-Fc titrated, 4-parameter fit.
For assay [9] the target is unchanged. Kind of assay: Octet, mouse TfR1 immobilised on biosensors; row buffer (no first antibody), column cont. (taken as the control VNAR F02).
The target of assay [10] is recombinant human TfR1 (transferrin receptor 1) (human) (UniProt P02786). Kind of assay: Octet, human TfR1 immobilised on biosensors; row buffer (no first antibody), column cont. (taken as the control VNAR F02). On the technique in general: BLI is a label-free optical method that tracks binding on a fibre tip over time.
Assay [11] shares this target. Kind of assay: Octet, human TfR1 immobilised; 8D3 as first antibody, which does not bind human TfR1 (grey column); white cell; cont. taken as the control VNAR F02.

Sequence of recombinant human TfR1 (transferrin receptor 1) (human) (P02786 89-760 limits assumed): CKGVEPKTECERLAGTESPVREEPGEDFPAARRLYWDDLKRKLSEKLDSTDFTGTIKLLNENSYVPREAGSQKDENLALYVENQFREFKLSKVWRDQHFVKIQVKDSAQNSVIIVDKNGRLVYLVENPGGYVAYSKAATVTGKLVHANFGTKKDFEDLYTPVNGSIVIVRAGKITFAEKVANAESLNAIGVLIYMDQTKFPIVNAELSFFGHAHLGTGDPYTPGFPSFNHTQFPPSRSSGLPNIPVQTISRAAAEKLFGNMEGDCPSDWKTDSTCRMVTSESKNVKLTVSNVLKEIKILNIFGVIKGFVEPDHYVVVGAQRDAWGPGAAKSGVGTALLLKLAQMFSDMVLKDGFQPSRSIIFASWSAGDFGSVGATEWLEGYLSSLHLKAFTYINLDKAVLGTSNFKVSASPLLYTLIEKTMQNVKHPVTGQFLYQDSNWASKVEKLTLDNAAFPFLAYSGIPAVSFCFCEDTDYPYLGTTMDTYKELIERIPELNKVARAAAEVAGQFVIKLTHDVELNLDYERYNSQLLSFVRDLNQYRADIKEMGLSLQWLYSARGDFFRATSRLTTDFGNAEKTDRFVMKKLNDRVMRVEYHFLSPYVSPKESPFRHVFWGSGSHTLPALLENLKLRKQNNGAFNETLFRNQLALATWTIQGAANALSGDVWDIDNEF

As to F02 control VNAR-Fc (Fc fusion), the half-maximal effective concentration (EC50) (as a rule, the midpoint of the concentration-response curve) in [1] is 1 nM; in assay [2] it was 10 nM; in assay [7], 3.69 nM; in [8] it was 38.2 nM. The Kd (in general, the free concentration of one partner at which half of the binding sites on the other are occupied at equilibrium, for simple one-to-one binding) in [3] came out at 0.344 nM; in assay [4], 0.294 nM; in assay [5] it was 0.969 nM; in assay [6] it was 1.46 nM. Besides, the koff (usually the rate constant with which the complex falls apart) is 0.000147 s⁻¹ in [3], 9.86e-05 s⁻¹ in [4], 0.00011 s⁻¹ in [5] and 0.00016 s⁻¹ in assay [6]. Moreover, the kon (in general, a measure of how fast the partners come together) in assay [3] was 426000 M⁻¹ s⁻¹; in assay [4] it was 335000 M⁻¹ s⁻¹; in assay [5], 113000 M⁻¹ s⁻¹; in assay [6] it was 109000 M⁻¹ s⁻¹. Besides, the Octet signal as second antibody after buffer in assay [9] came out at 0.194; in assay [10], 0.386. Further, in [11], the Octet signal as second antibody after 8D3 came out at 0.381.
